Measurements published in patent US20260146099A1 (SELVAX, published 2026).
Where two headings read alike, the source gives them in different places.

T1: Recombinant canine CD40/TNFRSF5 protein (his tag) (canine, UniProt Q7YRL5 21-194)
T1 construct: Sino Biological 70105-D08H, expressed in a human cell line from Met1-Ala194; signal peptide Met1-Pro20 predicted cleaved; also called antigen; StP1a (canine CD40)
T1 sequence: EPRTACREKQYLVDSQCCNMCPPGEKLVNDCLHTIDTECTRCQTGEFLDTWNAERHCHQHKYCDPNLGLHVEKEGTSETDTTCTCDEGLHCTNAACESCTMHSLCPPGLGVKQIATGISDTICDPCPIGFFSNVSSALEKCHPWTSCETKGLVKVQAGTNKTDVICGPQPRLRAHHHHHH

T2: Recombinant canine CD40 extracellular domain with human IgG1 Fc domain tag (canine; human, UniProt Q7YRL5 21-194)
T2 construct: extracellular domain; Amine-coupled to a CM5 chip; also called caCD40-Fc; canine CD40-Fc; not shown: human IgG1 Fc domain tag
T2 sequence (looked up): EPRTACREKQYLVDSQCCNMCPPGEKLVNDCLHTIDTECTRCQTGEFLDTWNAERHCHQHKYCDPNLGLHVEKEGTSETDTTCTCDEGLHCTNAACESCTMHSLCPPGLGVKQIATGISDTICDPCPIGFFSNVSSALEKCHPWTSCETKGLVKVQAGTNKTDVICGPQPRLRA


Key:
[1] = molecular target: Recombinant canine CD40 extracellular domain with human IgG1 Fc domain tag (canine; human) (UniProt Q7YRL5); experiment: SPR (Biacore T200), single-cycle kinetics, canine CD40-Fc immobilised, antibody 2-32 nM as analyte, bivalent analyte model, first site, average n=5
[2] = molecular target: T1, Recombinant canine CD40/TNFRSF5 protein …; experiment: ELISA, absorbance on StP1a over absorbance on Irrelevant His Tag (RgN3a)
[3] = molecular target: T2, Recombinant canine CD40 extracellular …; experiment: SPR (Biacore T200), single-cycle kinetics, canine CD40-Fc immobilised, antibody 2-32 nM as analyte, bivalent analyte model, first site, average n=5
Description: (§1) Recombinant canine CD40 extracellular domain with human IgG1 Fc domain tag (canine CD40-Fc) was immobilised to the surface of a Series S Sensor Chip CM5 using an Amine Coupling Kit. The reference surface for analysis was prepared by immobilising human IgG1 isotype control antibody to the Series S Sensor Chip CM5 using the same method.
(§2) Kinetics/affinity analysis was carried out using the Biacore method for single-cycle kinetics. Running buffer was HBS-EP+ buffer, pH 7.4. Injection parameters were sample contact time: 180 seconds, dissociation: 600 seconds, flow rate: 30 μl/min. The concentrations of purified anti-dog CD40 antibodies used for kinetics analysis were 2 nM, 4 nM, 8 nM, 16 nM and 32 nM. Regeneration was with 50 mM NaOH for 30 seconds at 30 μl/min. Experimental data was fitted to a bivalent analyte binding model.

[4] = molecular target: T2, Recombinant canine CD40 extracellular …; experiment: SPR (Biacore T200), single-cycle kinetics, canine CD40-Fc immobilised, antibody 2-32 nM as analyte, bivalent analyte model, first site, average n=6
Description: as §1
as §2, with “chimeric anti-CD40” for “purified anti-dog CD40”

[5] = molecular target: T2, Recombinant canine CD40 extracellular …; experiment: SPR (Biacore T200), single-cycle kinetics, canine CD40-Fc immobilised, antibody 2-32 nM as analyte, bivalent analyte model, first site, average n=5; remark: listed apart in the source
Description: as §1
as §2, with “chimeric anti-CD40” for “purified anti-dog CD40”

[6] = molecular target: T1, Recombinant canine CD40/TNFRSF5 protein …; experiment: ELISA, absorbance on StP1a over absorbance on Irrelevant His Tag (RgN3a); remark: listed apart in the source

Kd [5]	koff [5]	kon [5]	Molecule	also measured
–	–	–	anti-human CD40 antibody 21.4.1	Kd [1]: 257 nM; koff [1]: 0.0143 s⁻¹; kon [1]: 58000 M⁻¹ s⁻¹
–	–	–	StP1.RD1.G9.H5 (antibody, V domains shown, also called purified monoclonal antibody from hybridoma cell-line StP1.RD1.G9.H5) VH: QVQLQQSGPELVQPGASVKISCRASGYSFTSYYIHWVKQRPGQGLEWIGWIFPGSGNTKYNEKFRGKATLTADTSSSTAYTQVSSLTSEDSAVYFCARKSPYGNYAMDYWGQGTSVTVSS VL: DILLTQSPAILSVSPGERVSFSCRASQSIGTSIHWYQQRTNGSPRLLIKSASESISGIPSRFSGSGSGTDFTLSINSVESEDIADYYCQQSNSWPYTFGGGTKLEIKRADAAPTVS	positive:negative ratio [2]: 12.4; Kd [3]: 5.24 nM; koff [3]: 0.00157 s⁻¹; kon [3]: 312000 M⁻¹ s⁻¹; Kd [4]: 2.85 nM; koff [4]: 0.00106 s⁻¹; kon [4]: 372000 M⁻¹ s⁻¹
1.85 nM	0.000659 s⁻¹	370000 M⁻¹ s⁻¹	SVX-2001A (antibody, also called chimeric dog IgGA, k antibody derived from StP1.RD1.G9.H5) heavy: QVQLQQSGPELVQPGASVKISCRASGYSFTSYYIHWVKQRPGQGLEWIGWIFPGSGNTKYNEKFRGKATLTADTSSSTAYTQVSSLTSEDSAVYFCARKSPYGNYAMDYWGQGTSVTVSSASTTAPSVFPLAPSCGSTSGSTVALACLVSGYFPEPVTVSWNSGSLTSGVHTFPSVLQSSGLHSLSSMVTVPSSRWPSETFTCNVVHPASNTKVDKPVFNECRCTDTPPCPVPEPLGGPSVLIFPPKPKDILRITRTPEVTCVVLDLGREDPEVQISWFVDGKEVHTAKTQSREQQFNGTYRVVSVLPIEHQDWLTGKEFKCRVNHIDLPSPIERTISKARGRAHKPSVYVLPPSPKELSSSDTVSITCLIKDFYPPDIDVEWQSNGQQEPERKHRMTPPQLDEDGSYFLYSKLSVDKSRWQQGDPFTCAVMHETLQNHYTDLSLSHSPGK light: DILLTQSPAILSVSPGERVSFSCRASQSIGTSIHWYQQRTNGSPRLLIKSASESISGIPSRFSGSGSGTDFTLSINSVESEDIADYYCQQSNSWPYTFGGGTKLEIKRNDAQPAVYLFQPSPDQLHTGSASVVCLLNSFYPKDINVKWKVDGVIQDTGIQESVTEQDKDSTYSLSSTLTMSSTEYLSHELYSCEITHKSLPSTLIKSFQRSECQRVD	–
2.6 nM	0.000932 s⁻¹	359000 M⁻¹ s⁻¹	SVX-2001D (antibody, also called chimeric dog IgGD, k antibody derived from StP1.RD1.G9.H5) heavy: QVQLQQSGPELVQPGASVKISCRASGYSFTSYYIHWVKQRPGQGLEWIGWIFPGSGNTKYNEKFRGKATLTADTSSSTAYTQVSSLTSEDSAVYFCARKSPYGNYAMDYWGQGTSVTVSSASTTAPSVFPLAPSCGSTSGSTVALACLVSGYFPEPVTVSWNSGSLTSGVHTFPSVLQSSGLYSLSSTVTVPSSRWPSETFTCNVVHPASNTKVDKPVPKESTCKCISPCPVPESLGGPSVFIFPPKPKDILRITRTPEITCVVLDLGREDPEVQISWFVDGKEVHTAKTQPREQQFNSTYRVVSVLPIEHQDWLTGKEFKCRVNHIGLPSPIERTISKARGQAHQPSVYVLPPSPKELSSSDTVTLTCLIKDFFPPEIDVEWQSNGQPEPESKYHTTAPQLDEDGSYFLYSKLSVDKSRWQQGDTFTCAVMHEALQNHYTDLSLSHSPGK light: DILLTQSPAILSVSPGERVSFSCRASQSIGTSIHWYQQRTNGSPRLLIKSASESISGIPSRFSGSGSGTDFTLSINSVESEDIADYYCQQSNSWPYTFGGGTKLEIKRNDAQPAVYLFQPSPDQLHTGSASVVCLLNSFYPKDINVKWKVDGVIQDTGIQESVTEQDKDSTYSLSSTLTMSSTEYLSHELYSCEITHKSLPSTLIKSFQRSECQRVD	–
3.36 nM	0.00155 s⁻¹	461000 M⁻¹ s⁻¹	SVX-2001B (antibody, also called chimeric dog IgGB, k antibody derived from StP1.RD1.G9.H5) heavy: QVQLQQSGPELVQPGASVKISCRASGYSFTSYYIHWVKQRPGQGLEWIGWIFPGSGNTKYNEKFRGKATLTADTSSSTAYTQVSSLTSEDSAVYFCARKSPYGNYAMDYWGQGTSVTVSSASTTAPSVFPLAPSCGSTSGSTVALACLVSGYFPEPVTVSWNSGSLTSGVHTFPSVLQSSGLYSLSSMVTVPSSRWPSETFTCNVAHPASKTKVDKPVPKRENGRVPRPPDCPKCPAPEMLGGPSVFIFPPKPKDTLLIARTPEVTCVVVDLDPEDPEVQISWFVDGKQMQTAKTQPREEQFNGTYRVVSVLPIGHQDWLKGKQFTCKVNNKALPSPIERTISKARGQAHQPSVYVLPPSREELSKNTVSLTCLIKDFFPPDIDVEWQSNGQQEPESKYRTTPPQLDEDGSYFLYSKLSVDKSRWQRGDTFICAVMHEALHNHYTQESLSHSPGK light: DILLTQSPAILSVSPGERVSFSCRASQSIGTSIHWYQQRTNGSPRLLIKSASESISGIPSRFSGSGSGTDFTLSINSVESEDIADYYCQQSNSWPYTFGGGTKLEIKRNDAQPAVYLFQPSPDQLHTGSASVVCLLNSFYPKDINVKWKVDGVIQDTGIQESVTEQDKDSTYSLSSTLTMSSTEYLSHELYSCEITHKSLPSTLIKSFQRSECQRVD	–
3.36 nM	0.00172 s⁻¹	519000 M⁻¹ s⁻¹	SVX-2001C (antibody, also called chimeric dog IgGC, k antibody derived from StP1.RD1.G9.H5) heavy: QVQLQQSGPELVQPGASVKISCRASGYSFTSYYIHWVKQRPGQGLEWIGWIFPGSGNTKYNEKFRGKATLTADTSSSTAYTQVSSLTSEDSAVYFCARKSPYGNYAMDYWGQGTSVTVSSASTTAPSVFPLAPSCGSQSGSTVALACLVSGYIPEPVTVSWNSVSLTSGVHTFPSVLQSSGLYSLSSMVTVPSSRWPSETFTCNVAHPATNTKVDKPVAKECECKCNCNNCPCPGCGLLGGPSVFIFPPKPKDILVTARTPTVTCVVVDLDPENPEVQISWFVDSKQVQTANTQPREEQSNGTYRVVSVLPIGHQDWLSGKQFKCKVNNKALPSPIEEIISKTPGQAHQPNVYVLPPSRDEMSKNTVTLTCLVKDFFPPEIDVEWQSNGQQEPESKYRMTPPQLDEDGSYFLYSKLSVDKSRWQRGDTFICAVMHEALHNHYTQISLSHSPGK light: DILLTQSPAILSVSPGERVSFSCRASQSIGTSIHWYQQRTNGSPRLLIKSASESISGIPSRFSGSGSGTDFTLSINSVESEDIADYYCQQSNSWPYTFGGGTKLEIKRNDAQPAVYLFQPSPDQLHTGSASVVCLLNSFYPKDINVKWKVDGVIQDTGIQESVTEQDKDSTYSLSSTLTMSSTEYLSHELYSCEITHKSLPSTLIKSFQRSECQRVD	–
–	–	–	StP1.RE2.D7b.B5 (antibody, V domains shown) VH: QVQLQQSGPELVKPGASVKISCKASGYSFTSYYIHWVKQSPGQGLEWIGWIFPGSGNTKYNEKFKGKATLTADTSSSTAYMQLSSLTSEDSAVYFCARRGTTRDALDYWGQGTSVTVSS VL: DILLTQSPAILSVSPGERVSFSCRASQSIGTSIHWFQQRTNGSPRVLIKYASQSISGIPSRFSGSGSGTDFTLSINSVESEDIADYYCQQSYTWPFTFGSGTKLAIKR	positive:negative ratio [6]: 10.8
